Experimental data from patent US20150307603A1 (MODIQUEST B V, published 2015).
Non-standard residues stand in square brackets, D forms with d. No end group written: not given here. Cit = NC(=O)NCCC[C@H](N)C(=O)O

Key:
[1] = biological target: T1, huPAD2-deiminated human recombinant histone 2A (human); assay: ELISA, Ab 10 ug/well
T1 construct: also called H2A/p2; histone 2A/p2
Excerpt: (§1) The resulting OD (y-axis) is a measure for antibody binding. H1-recombinant histone 1; H1/p2-huPAD2 recombinant histone 1; H1/p4-huPAD4 recombinant histone 1, and so forth (x-axis).

[2] = biological target: T2, huPAD4-deiminated human recombinant histone 2B (human); assay: ELISA, Ab 10 ug/well
T2 construct: also called H2B/p4
Excerpt: as §1

[3] = biological target: T3, huPAD2-deiminated human recombinant histone 3 (human); assay: ELISA, Ab 10 ug/well
T3 construct: also called H3/p2; histone 3/p2
Excerpt: as §1

[4] = biological target: T4, huPAD4-deiminated human recombinant histone 3 (human); assay: ELISA, Ab 10 ug/well
T4 construct: also called H3/p4
Excerpt: as §1

[5] = biological target: T5, CFC-1; assay: ELISA, Ab 10 ug/well
T5 construct: Positive control for anti-citrulline reactivity; also called cfc1 XG; Cfc1-peptide
Excerpt: as §1

[6] = biological target: T1, huPAD2-deiminated human recombinant …; assay: ELISA, Ab 0.0032 ug/well
Excerpt: as §1

[7] = biological target: T6, huPAD4-deiminated human recombinant histone 2A (human); assay: ELISA, Ab 0.0032 ug/well
T6 construct: also called H2A/p4; histone 2A/p4
Excerpt: as §1

[8] = biological target: T7, human recombinant histone 2B (human); assay: ELISA, Ab 0.0032 ug/well
T7 construct: Non-deiminated; also called H2B
Excerpt: as §1

[9] = biological target: T8, huPAD2-deiminated human recombinant histone 2B (human); assay: ELISA, Ab 0.0032 ug/well
T8 construct: also called H2B/p2
Excerpt: as §1

[10] = biological target: T2, huPAD4-deiminated human recombinant …; assay: ELISA, Ab 0.0032 ug/well
Excerpt: as §1

[11] = biological target: T3, huPAD2-deiminated human recombinant …; assay: ELISA, Ab 0.0032 ug/well
Excerpt: as §1

[12] = biological target: T4, huPAD4-deiminated human recombinant …; assay: ELISA, Ab 0.0032 ug/well
Excerpt: as §1

[13] = biological target: human recombinant histone 4 (human, UniProt P62805 2-103); assay: ELISA, Ab 0.0032 ug/well
Excerpt: as §1

[14] = biological target: T5, CFC-1; assay: ELISA, Ab 0.0032 ug/well
Excerpt: as §1

[15] = biological target: T5, CFC-1; assay: ELISA, Ab 0.00064 ug/well
Method: (§2) Biotin and citrulline-containing peptides derived from histone 2A were immobilized on NEUTRAVIDIN®-coated 96-well ELISA plates (0.3 μg/well). CFC-1 and CFC-0 were coated at the same concentration and served as positive and negative controls, respectively, for specific anti-citrulline reactivity and as coating controls. Non-coated wells were used to test for aspecific binding of the antibodies. […] Detection of bound anti-citrulline antibodies was performed by incubating the wells with rabbit anti-human HRP (1:2000) for 1 hour at RT followed by incubation with TMB substrate. The resulting OD (y-axis) is a measure for antibody binding.

[16] = biological target: T9, peptide no. 1 (human histone 2A) (human, also: biotin-labelled); assay: ELISA, Ab 0.00064 ug/well
T9 construct: also called peptide 1; AAASGXGKQGGK
T9 peptide: AAASG[Cit]GKQGGK
Method: as §2

[17] = biological target: T10, peptide no. 2 (human histone 2A) (human, also: biotin-labelled); assay: ELISA, Ab 0.00064 ug/well
T10 construct: also called peptide 2
T10 peptide: AKAKS[Cit]SSRAGL
Method: as §2

[18] = biological target: T11, peptide no. 4 (human histone 2A) (human, also: biotin-labelled); assay: ELISA, Ab 0.00064 ug/well
T11 construct: also called peptide 4
T11 peptide: QFPVG[Cit]VHRLLR
Method: as §2

[19] = biological target: T12, peptide no. 5 (human histone 2A) (human, also: biotin-labelled); assay: ELISA, Ab 0.00064 ug/well
T12 construct: also called peptide 5
T12 peptide: VGRVH[Cit]LLRKGN
Method: as §2

[20] = biological target: T13, peptide no. 7 (human histone 2A) (human, also: biotin-labelled); assay: ELISA, Ab 0.00064 ug/well
T13 construct: also called peptide 7
T13 peptide: GNYSE[Cit]VGAGAP
Method: as §2

[21] = biological target: T14, peptide no. 8 (human histone 2A) (human, also: biotin-labelled); assay: ELISA, Ab 0.00064 ug/well
T14 construct: also called peptide 8
T14 peptide: AGNAA[Cit]DNKKTR
Method: as §2

[22] = biological target: T15, peptide no. 9 (human histone 2A) (human, also: biotin-labelled); assay: ELISA, Ab 0.00064 ug/well
T15 construct: also called peptide 9
T15 peptide: DNKKT[Cit]IIPRHL
Method: as §2

[23] = biological target: T16, peptide no. 11 (human histone 2A) (human, also: biotin-labelled); assay: ELISA, Ab 0.00064 ug/well
T16 construct: also called peptide 11
T16 peptide: LQLAI[Cit]NDEELN
Method: as §2

[24] = biological target: T5, CFC-1; assay: ELISA, Ab 0.00064 ug/well; remark: listed apart in the source
Method: as §2, with “fibrinogen and vimentin” for “histone 2A”
(§3) Biotin-labeled and citrulline-containing fibrinogen and vimentin peptides (Table 5) were also tested for reactivity with the therapeutic antibodies. Peptides were coated on 96-well NEUTRAVIDIN®-ELISA plates.

[25] = biological target: T17, msFibα XH (mouse, X at position 15 = citrulline; biotin-labelled); assay: ELISA, Ab 0.00064 ug/well
T17 peptide: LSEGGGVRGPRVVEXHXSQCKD
Method: as §2, with “fibrinogen and vimentin” for “histone 2A”
as §3

[26] = biological target: T18, huFibα XH (human, X at position 15 = citrulline; biotin-labelled); assay: ELISA, Ab 0.00064 ug/well
T18 peptide: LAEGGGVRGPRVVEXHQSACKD
Method: as §2, with “fibrinogen and vimentin” for “histone 2A”
as §3

[27] = biological target: T19, huFibα XG (human, X at position 8 = citrulline; biotin-labelled); assay: ELISA, Ab 0.00064 ug/well
T19 peptide: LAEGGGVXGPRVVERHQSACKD
Method: as §2, with “fibrinogen and vimentin” for “histone 2A”
as §3

[28] = biological target: T20, msVim XS/XL (mouse, also: biotin-labelled); assay: ELISA, Ab 0.00064 ug/well
T20 construct: also called mouse vimentin peptide
T20 peptide: YVT[Cit]SSAV[Cit]L[Cit]SSVP
Method: as §2, with “fibrinogen and vimentin” for “histone 2A”
as §3

B1: RhmAb2.102 (antibody, human IgG1, lambda)
heavy: not shown
light: QSVLTQPPSMSAAPGQKVTISCSGSSSNIGNNYVSWYQQVPGTAPKLLIYDDNKRPSGIPGRFSGSKSATSATLGITGLQAGDEADYYCGSWDDNLSVVLFGGGTKLTVLGQPKAAPSVTLFPPSSEELQANKATLVCLISDFYPGAVTVAWKADSSPVKAGVETTTPSKQSNNKYAASSYLSLTPEQWKSHRSYSCQVTHEGSTVEKTVAPTECS
notes: Human IgG1 lambda; also called Rhm2.102
OD [1]: 3.41 OD450
OD [2]: 0.229 OD450
OD [3]: 2.44 OD450
OD [4]: 1.31 OD450
OD [5]: 3.48 OD450
OD [6]: 0.161 OD450
OD [7]: 0.135 OD450
OD [8]: 0.05 OD450
OD [9]: 0.052 OD450
OD [10]: 0.052 OD450
OD [11]: 0.08 OD450
OD [12]: 0.065 OD450
OD [13]: 0.06 OD450
OD [14]: 0.178 OD450
OD [15]: 0.621 OD450
OD [16]: 0.16 OD450
OD [17]: 0.055 OD450
OD [18]: 0.063 OD450
OD [19]: 0.067 OD450
OD [20]: 0.057 OD450
OD [21]: 0.057 OD450
OD [22]: 0.059 OD450
OD [23]: 0.06 OD450
OD [24]: 0.345 OD450
OD [25]: 0.088 OD450
OD [26]: 0.124 OD450
OD [27]: 0.125 OD450
OD [28]: 0.154 OD450
